Test results from publication PMC8132391.

How the values were obtained:
[1] = biological target: Bn86287 (104-607 amino acids), COG4337 protein of Bigelowiella natans (Bigelowiella natans); assay: SEC-MALS; Superdex 200 increase 10/300 GL, 293 K, 20 mM Tris-HCl pH 8.0, 100 mM NaCl; Bn86287 3.7 mg/ml and all2909 4.9 mg/ml, 30 ul injected
[2] = biological target: all2909, COG4337 protein of Anabaena sp. PCC 7120, without N-terminal leader (Anabaena sp. PCC 7120) (UniProt Q8YT18); assay: as above

| Substance | stoichiometry N [1] | stoichiometry N [2] |
| --- | --- | --- |
| Bn86287 (104-607 amino acids), COG4337 protein of Bigelowiella natans (enzyme) | 2 |  |
| all2909, COG4337 protein of Anabaena sp. PCC 7120, without N-terminal leader (from UniProt Q8YT18 31-205) (enzyme) |  | 4 |
